{"source": "the Human Domainome abundance scans (Beltran et al. 2025)", "parents": {"B1": {"name": "RanBP-type and C3HC4-type zinc finger-containing protein 1, residues 369 to 411; numbered along this chain, Q9BYM8 (parent)", "chain": "YHCKTPDCKGWCFFEDDVNEFTCPVCFHVNCLLCKAIHEQMNC"}}, "note": "± gives the uncertainty stated by the source."}
{"variants_of": "B1", "assay": "abundance fitness (aPCA) (normalised: wild type 0, dead -1); higher = more abundant; growth selection in yeast, the domain comes from the species named", "conditions": "Homo sapiens"}
{"variant": "YHCKTPDCKGWCFFEDDVNEFTCPVCFHVNCLLCKAIHPQMNC", "note": "[E39P]", "abundance fitness": "0.029 ± 0.059"}
{"variant": "YHCKTPDCKGWCFFEDDVNEFTCPVCFHVNCLLCKAIHRQMNC", "note": "[E39R]", "abundance fitness": "-0.111 ± 0.045"}
{"variant": "YHCKTPDCKGWCFFEDDVNEFTCPVCFHVNCLLCKAIHSQMNC", "note": "[E39S]", "abundance fitness": "-0.09 ± 0.051"}
{"variant": "YHCKTPDCKGWCFFEDDVNEFTCPVCFHVNCLLCKAIHWQMNC", "note": "[E39W]", "abundance fitness": "-0.249 ± 0.06"}
{"variant": "YHCKTPDCKGWCFFEDDVNEFTCPVCFHVNCLLCKAIHAQMNC", "note": "[E39A]", "abundance fitness": "-0.09 ± 0.049"}
{"variant": "YHCKTPDCKGWCFFEDDVNEFTCPVCFHVNCLLCKAIHNQMNC", "note": "[E39N]", "abundance fitness": "-0.081 ± 0.17"}
{"variant": "YHCKTPDCKGWCFFEDDVNEFTCPVCFHVNCLLCKAIHQQMNC", "note": "[E39Q]", "abundance fitness": "-0.012 ± 0.057"}
{"variant": "YHCKTPDCKGWCFFEDDVNEFTCPVCFHVNCLLCKAIHFQMNC", "note": "[E39F]", "abundance fitness": "-0.213 ± 0.11"}
{"variant": "YHCKTPDCKGWCFFEDDVNEFTCPVCFHVNCLLCKAIHDQMNC", "note": "[E39D]", "abundance fitness": "0.03 ± 0.065"}
{"variant": "YHCKTPDCKGWCFFEDDVNEFTCPVCFHVNCLLCKAIHVQMNC", "note": "[E39V]", "abundance fitness": "-0.155 ± 0.048"}
{"variant": "YHCKTPDCKGWCFFEDDVNEFTCPVCFHVNCLLCKAIHHQMNC", "note": "[E39H]", "abundance fitness": "-0.167 ± 0.079"}
{"variant": "YHCKTPDCKGWCFFEDDVNEFTCPVCFHVNCLLCKAIHLQMNC", "note": "[E39L]", "abundance fitness": "-0.106 ± 0.057"}
{"variant": "YHCKTPDCKGWCFFEDDVNEFTCPVCFHVNCLLCKAIHMQMNC", "note": "[E39M]", "abundance fitness": "-0.143 ± 0.072"}
{"variant": "YHCKTPDCKGWCFFEDDVNEFTCPVCFHVNCLLCKAIHTQMNC", "note": "[E39T]", "abundance fitness": "0.021 ± 0.051"}
{"variant": "YHCKTPDCKGWCFFEDDVNEFTCPVCFHVNCLLCKAIHGQMNC", "note": "[E39G]", "abundance fitness": "0.024 ± 0.04"}
{"variant": "YHCKTPDCKGWCFFEDDVNEFTCPVCFHVNCLLCKAIHKQMNC", "note": "[E39K]", "abundance fitness": "-0.021 ± 0.059"}
{"variant": "YHCKTPDCKGWCFFEDDVNEFTCPVCFHVNCLLCKAIHCQMNC", "note": "[E39C]", "abundance fitness": "-0.27 ± 0.095"}
{"variant": "YHCKTPDCKGWCFFEDDVNEFTCPVCFHVNCLLCKAIHECMNC", "note": "[Q40C]", "abundance fitness": "-0.139 ± 0.064"}
{"variant": "YHCKTPDCKGWCFFEDDVNEFTCPVCFHVNCLLCKAIHEHMNC", "note": "[Q40H]", "abundance fitness": "-0.031 ± 0.076"}
{"variant": "YHCKTPDCKGWCFFEDDVNEFTCPVCFHVNCLLCKAIHESMNC", "note": "[Q40S]", "abundance fitness": "0.023 ± 0.041"}
{"variant": "YHCKTPDCKGWCFFEDDVNEFTCPVCFHVNCLLCKAIHEEMNC", "note": "[Q40E]", "abundance fitness": "0.107 ± 0.054"}
{"variant": "YHCKTPDCKGWCFFEDDVNEFTCPVCFHVNCLLCKAIHEVMNC", "note": "[Q40V]", "abundance fitness": "-0.32 ± 0.053"}
{"variant": "YHCKTPDCKGWCFFEDDVNEFTCPVCFHVNCLLCKAIHENMNC", "note": "[Q40N]", "abundance fitness": "0.036 ± 0.093"}
{"variant": "YHCKTPDCKGWCFFEDDVNEFTCPVCFHVNCLLCKAIHEFMNC", "note": "[Q40F]", "abundance fitness": "-0.54 ± 0.12"}
{"variant": "YHCKTPDCKGWCFFEDDVNEFTCPVCFHVNCLLCKAIHEAMNC", "note": "[Q40A]", "abundance fitness": "-0.094 ± 0.043"}
{"variant": "YHCKTPDCKGWCFFEDDVNEFTCPVCFHVNCLLCKAIHELMNC", "note": "[Q40L]", "abundance fitness": "-0.452 ± 0.062"}
{"variant": "YHCKTPDCKGWCFFEDDVNEFTCPVCFHVNCLLCKAIHEGMNC", "note": "[Q40G]", "abundance fitness": "0.129 ± 0.038"}
{"variant": "YHCKTPDCKGWCFFEDDVNEFTCPVCFHVNCLLCKAIHEPMNC", "note": "[Q40P]", "abundance fitness": "0.005 ± 0.049"}
{"variant": "YHCKTPDCKGWCFFEDDVNEFTCPVCFHVNCLLCKAIHERMNC", "note": "[Q40R]", "abundance fitness": "-0.022 ± 0.04"}
{"variant": "YHCKTPDCKGWCFFEDDVNEFTCPVCFHVNCLLCKAIHETMNC", "note": "[Q40T]", "abundance fitness": "0.068 ± 0.045"}
{"variant": "YHCKTPDCKGWCFFEDDVNEFTCPVCFHVNCLLCKAIHEDMNC", "note": "[Q40D]", "abundance fitness": "0.043 ± 0.08"}
{"variant": "YHCKTPDCKGWCFFEDDVNEFTCPVCFHVNCLLCKAIHEWMNC", "note": "[Q40W]", "abundance fitness": "-0.542 ± 0.075"}
{"variant": "YHCKTPDCKGWCFFEDDVNEFTCPVCFHVNCLLCKAIHEQSNC", "note": "[M41S]", "abundance fitness": "0.156 ± 0.047"}
{"variant": "YHCKTPDCKGWCFFEDDVNEFTCPVCFHVNCLLCKAIHEQNNC", "note": "[M41N]", "abundance fitness": "0.114 ± 0.062"}
{"variant": "YHCKTPDCKGWCFFEDDVNEFTCPVCFHVNCLLCKAIHEQHNC", "note": "[M41H]", "abundance fitness": "0.043 ± 0.083"}
{"variant": "YHCKTPDCKGWCFFEDDVNEFTCPVCFHVNCLLCKAIHEQDNC", "note": "[M41D]", "abundance fitness": "0.094 ± 0.066"}
{"variant": "YHCKTPDCKGWCFFEDDVNEFTCPVCFHVNCLLCKAIHEQTNC", "note": "[M41T]", "abundance fitness": "0.155 ± 0.048"}
{"variant": "YHCKTPDCKGWCFFEDDVNEFTCPVCFHVNCLLCKAIHEQKNC", "note": "[M41K]", "abundance fitness": "0.101 ± 0.052"}
{"variant": "YHCKTPDCKGWCFFEDDVNEFTCPVCFHVNCLLCKAIHEQVNC", "note": "[M41V]", "abundance fitness": "-0.008 ± 0.043"}
{"variant": "YHCKTPDCKGWCFFEDDVNEFTCPVCFHVNCLLCKAIHEQINC", "note": "[M41I]", "abundance fitness": "-0.112 ± 0.069"}
{"variant": "YHCKTPDCKGWCFFEDDVNEFTCPVCFHVNCLLCKAIHEQLNC", "note": "[M41L]", "abundance fitness": "-0.076 ± 0.049"}
{"variant": "YHCKTPDCKGWCFFEDDVNEFTCPVCFHVNCLLCKAIHEQPNC", "note": "[M41P]", "abundance fitness": "0.059 ± 0.052"}
{"variant": "YHCKTPDCKGWCFFEDDVNEFTCPVCFHVNCLLCKAIHEQRNC", "note": "[M41R]", "abundance fitness": "0.128 ± 0.038"}
{"variant": "YHCKTPDCKGWCFFEDDVNEFTCPVCFHVNCLLCKAIHEQANC", "note": "[M41A]", "abundance fitness": "0.178 ± 0.042"}
{"variant": "YHCKTPDCKGWCFFEDDVNEFTCPVCFHVNCLLCKAIHEQFNC", "note": "[M41F]", "abundance fitness": "-0.2 ± 0.11"}
{"variant": "YHCKTPDCKGWCFFEDDVNEFTCPVCFHVNCLLCKAIHEQYNC", "note": "[M41Y]", "abundance fitness": "-0.173 ± 0.13"}
{"variant": "YHCKTPDCKGWCFFEDDVNEFTCPVCFHVNCLLCKAIHEQGNC", "note": "[M41G]", "abundance fitness": "0.202 ± 0.038"}
{"variant": "YHCKTPDCKGWCFFEDDVNEFTCPVCFHVNCLLCKAIHEQWNC", "note": "[M41W]", "abundance fitness": "-0.035 ± 0.055"}
{"variant": "YHCKTPDCKGWCFFEDDVNEFTCPVCFHVNCLLCKAIHEQENC", "note": "[M41E]", "abundance fitness": "0.135 ± 0.061"}
{"variant": "YHCKTPDCKGWCFFEDDVNEFTCPVCFHVNCLLCKAIHEQCNC", "note": "[M41C]", "abundance fitness": "-0.004 ± 0.068"}
{"variant": "YHCKTPDCKGWCFFEDDVNEFTCPVCFHVNCLLCKAIHEQQNC", "note": "[M41Q]", "abundance fitness": "0.15 ± 0.049"}
{"variant": "YHCKTPDCKGWCFFEDDVNEFTCPVCFHVNCLLCKAIWEQMNC", "note": "[H38W]", "abundance fitness": "-1 ± 0.086"}
{"variant": "YHCKTPDCKGWCFFEDDVNEFTCPVCFHVNCLLCKAIMEQMNC", "note": "[H38M]", "abundance fitness": "-0.89 ± 0.15"}
{"variant": "YHCKTPDCKGWCFFEDDVNEFTCPVCFHVNCLLCKAIFEQMNC", "note": "[H38F]", "abundance fitness": "-0.59 ± 0.19"}
{"variant": "YHCKTPDCKGWCFFEDDVNEFTCPVCFHVNCLLCKAIGEQMNC", "note": "[H38G]", "abundance fitness": "-0.536 ± 0.049"}
{"variant": "YHCKTPDCKGWCFFEDDVNEFTCPVCFHVNCLLCKAICEQMNC", "note": "[H38C]", "abundance fitness": "-0.774 ± 0.091"}
{"variant": "YHCKTPDCKGWCFFEDDVNEFTCPVCFHVNCLLCKAIEEQMNC", "note": "[H38E]", "abundance fitness": "-0.46 ± 0.06"}
{"variant": "YHCKTPDCKGWCFFEDDVNEFTCPVCFHVNCLLCKAINEQMNC", "note": "[H38N]", "abundance fitness": "-0.76 ± 0.09"}
{"variant": "YHCKTPDCKGWCFFEDDVNEFTCPVCFHVNCLLCKAIIEQMNC", "note": "[H38I]", "abundance fitness": "-0.881 ± 0.42"}
